# Reference: patent US20230265198A1 (TWIST BIOSCIENCE, published 2023)
# B1: NRP1-27 (VHH)
# VHH: EVQLVESGGGLVQPGGSLRLSCAASGFRFGDYPMGWFRQAPGKEREFVSAISWSGGSTVYADSVKGRFTISADNSKNTAYLQMNSLKPEDTAVYYCALGPVRRSRLEWGQGTLVTVSS
# How the values were obtained:
# [1] = target: neuropilin-1 (NRP1) on HEK293 cells overexpressing NRP1 (UniProt O14786); experiment: flow cytometry, HEK293-NRP1 vs HEK293
# [2] = target: neuropilin-1 (NRP1), analyte in SPR (UniProt O14786 22-644, limits assumed); experiment: SPR, Carterra LSA, antibody coupled
# Experimental: SPR experiments were performed on a Carterra LSA SPR biosensor equipped with a HC30M chip at 25° C. in HBS-TE. Antibodies were diluted to 10 μg/mL and amine-coupled to the sensor chip by EDC/NHS activation, followed by ethanolamine HCl quenching. Increasing concentrations of analyte were flowed over the sensor chip in HBS-TE with 0.5 mg/mL BSA with 5-minute association and 15-minute dissociation. Following each injection cycle the surface was regenerated with 2× 30-second injections of IgG elution buffer (Thermo). Data were analyzed in Carterra's Kinetics Tool software with 1:1 binding model.
binder,measurement,setting,value
B1,100 nM FACS (MFI Ratio),[1],2.1
same,binding result,[2],no binding
